For one data set, the system named is PBMCs. The experiment in a line: MTT cell viability assay, PBMC. The data set is classed as cell-based, human. Conditions: peptide 1, 5 and 25 μM. How it is done:
FIGS. 13A and B are bar charts showing the effect of A467 and A464 on LPS-induced TNFα production and on cell viability in primary human cells. Peripheral blood mononuclear cells (PBMCs) were seeded in 96 well plates (1 ×10^6 cells/ml) 24 hours before treatment. A467 (SEQ ID NO. 23) and A464 (SEQ ID NO. 20) were added to the cells at 1, 5 and 25 μM 1 hour before stimulating with 10 ng/ml LPS. The peptides were added into the unstimulated control wells at 25 μM. Supernatants were collected 6 hours after stimulation and assayed for TNFα production by ELISA (A). The cells were assayed for viability by the MTT assay (B). No peptides were added to the control wells (black bars). Data is representative of at least three experiments each performed in triplicate and is expressed as mean±s.d;
Cell viability was measured by assessing mitochondrial function using an MTT (3-(4,5-Dimethylthiazol-2-yl)-2,5-diphenyltetrazolium bromide) assay. Cells were seeded into 96 well plates and treated with peptides and agonists as described above in relation to the Figs. Wells containing medium only served as a blank control. To terminate treatment of cells, medium was removed and the cells were washed once with PBS. […] MTT was then removed and 200 μl per well of dimethyl sulphoxide (DMSO) was added and cells incubated for 20 min at 37° C. in the dark, prior to absorbance being read at 595 nm on a spectrophotometer.
A general note: Tetrazolium assays rely on reduction of a dye to a coloured formazan, in cell work by metabolically active cells.

A further data set concerns the target T1, TLR2 (Homo sapiens, UniProt O60603).
T1 construct: endogenous in cells; host or cells: PMA-differentiated THP-1
The experiment in a line: Pam3CysK4-induced TNFα in THP-1 cells, ELISA. Conditions: peptide 1, 5 or 10 μM. The data set is classed as cell-based. The procedure: FIGS. 9A and B are bar charts showing the effect of A464 on Pam3CysK4-induced TNFα in human THP-1 cells. Cells were seeded in 96 well plates (3×10^5 cells/ml) and differentiated with 200 nM PMA for 24 hours before treatment. A464 (SEQ ID NO. 20) was added to the cells at a concentration of 1, 5 or 10 μM 1 hour before stimulating with either 100 ng/ml (A) or 10 ng/ml Pam3CysK4 (B). Supernatants were collected 24 hours after stimulation and assayed for TNFα by ELISA. Cells from (B) were also assayed for viability by the MTT assay (C). No peptides were added to the control wells (black bars). Data is representative of at least three experiments each performed in triplicate and is expressed as mean±s.d;
Cytokine and chemokine production from cells or mouse serum was measured by ELISA using Duoset kits from R&D systems, according to the manufacturer's instructions.
In order to determine whether A464 (SEQ ID No. 20) was specific for TLR4, other TLR pathways were next assayed for sensitivity to A464 (SEQ ID No. 20). A scrambled version of A464 (SEQ ID No. 20) peptide was designed to use as a further control peptide, and this had the sequence: […] (ConA464, SEQ ID No. 32). The A464R (SEQ ID No. 20) and ConA464 (SEQ ID No. 32) peptides were assayed for inhibition of TLR2 signalling in THP-1 cells. […]
In general terms: In an ELISA, binding on a coated surface is turned into a signal by an enzyme label.

T1 sequence (O60603 21-784): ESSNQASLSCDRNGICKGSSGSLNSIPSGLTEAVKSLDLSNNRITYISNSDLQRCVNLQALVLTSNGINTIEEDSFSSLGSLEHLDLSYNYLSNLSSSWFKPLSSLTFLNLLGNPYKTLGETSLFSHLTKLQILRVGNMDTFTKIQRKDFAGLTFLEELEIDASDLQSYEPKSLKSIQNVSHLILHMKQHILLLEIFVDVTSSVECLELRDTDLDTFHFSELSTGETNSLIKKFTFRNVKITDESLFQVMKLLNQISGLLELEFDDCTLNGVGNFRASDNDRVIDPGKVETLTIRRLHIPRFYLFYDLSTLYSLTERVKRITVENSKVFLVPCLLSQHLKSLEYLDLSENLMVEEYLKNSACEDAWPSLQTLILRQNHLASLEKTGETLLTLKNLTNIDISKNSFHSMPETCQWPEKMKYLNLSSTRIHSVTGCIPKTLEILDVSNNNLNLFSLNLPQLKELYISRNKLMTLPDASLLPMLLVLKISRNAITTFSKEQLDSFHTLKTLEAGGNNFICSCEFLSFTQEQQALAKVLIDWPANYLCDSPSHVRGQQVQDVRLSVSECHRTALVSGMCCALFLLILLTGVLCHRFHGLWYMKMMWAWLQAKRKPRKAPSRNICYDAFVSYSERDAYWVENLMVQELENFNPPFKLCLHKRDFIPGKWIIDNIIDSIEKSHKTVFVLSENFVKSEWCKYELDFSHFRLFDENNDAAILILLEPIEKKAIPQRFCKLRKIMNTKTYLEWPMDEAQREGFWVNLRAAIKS
T1 sequence (Q15399 25-786 partner): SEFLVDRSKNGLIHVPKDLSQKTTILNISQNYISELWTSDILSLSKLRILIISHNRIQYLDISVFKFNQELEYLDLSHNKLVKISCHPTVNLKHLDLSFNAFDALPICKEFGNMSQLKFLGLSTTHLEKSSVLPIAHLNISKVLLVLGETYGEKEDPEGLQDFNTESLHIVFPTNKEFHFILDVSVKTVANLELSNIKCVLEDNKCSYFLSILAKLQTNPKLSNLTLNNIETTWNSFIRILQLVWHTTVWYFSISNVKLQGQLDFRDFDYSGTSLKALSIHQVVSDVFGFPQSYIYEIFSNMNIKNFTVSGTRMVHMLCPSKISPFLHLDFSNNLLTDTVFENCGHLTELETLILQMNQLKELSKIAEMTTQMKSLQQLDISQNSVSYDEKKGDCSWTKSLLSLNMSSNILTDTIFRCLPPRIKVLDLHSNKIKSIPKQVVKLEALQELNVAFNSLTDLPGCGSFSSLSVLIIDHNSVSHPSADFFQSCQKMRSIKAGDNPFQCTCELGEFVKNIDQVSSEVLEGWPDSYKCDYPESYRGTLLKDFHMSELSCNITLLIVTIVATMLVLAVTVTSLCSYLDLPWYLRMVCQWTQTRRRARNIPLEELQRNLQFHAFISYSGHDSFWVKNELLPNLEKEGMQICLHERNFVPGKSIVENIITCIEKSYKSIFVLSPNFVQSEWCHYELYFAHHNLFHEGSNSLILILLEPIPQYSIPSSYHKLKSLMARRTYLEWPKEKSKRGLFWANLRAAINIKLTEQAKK

Turning to KYSFKLILAEYRRRRRRRRR [Peptide A464], the “toxicity (MTT)” value in the data set on PBMCs is reported as “not toxic”. Also, the “inhibition of Pam3CysK4-induced hTNFα secretion” value is on record as “slightly heightened” with TLR2 (10 ng/ml Pam3CysK4, 24 h) and “only very minor inhibitory effects” with TLR2 (100 ng/ml Pam3CysK4, 24 h).

For the origin of these results see patent US8722052B2, “Vaccinia virus protein A46 peptide and use thereof” (priority 2008, dated 2014).
